Data on 1 molecule can be found in US12383631B2, “Immune antigen specific IL-18 immunocytokines and uses thereof” (Bright Peak Therapeutics AG, priority 2022, dated 2025).

Assay [1] concerns the target T1, human IL-18 binding protein isoform a (IL-18BPa) (Homo sapiens, UniProt O95998).
T1 sequence (O95998 31-194): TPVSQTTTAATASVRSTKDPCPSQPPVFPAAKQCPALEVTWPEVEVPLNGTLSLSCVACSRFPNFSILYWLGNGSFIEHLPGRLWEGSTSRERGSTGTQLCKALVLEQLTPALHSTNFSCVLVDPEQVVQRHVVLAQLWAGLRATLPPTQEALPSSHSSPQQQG
In words: Cellular IL-18 Binding protein resistance assay in NK-92 cells (Example 13). In kind it is cell-based. The note with it: NK92 cells, IL-18 analyte 1 nM final, IL-18BPa titrated, 1 ng/ml IL-12; read-out: IC50 IL-18BP-mediated inhibition of IFNγ secretion. The protocol: The NK cell line NK-92 derived from a patient with lymphoma (ATCC, Cat #CRL-2407) was cultured in aMEM medium supplemented with 20% FCS-Glutamax, 25 μM B-mercaptoEthanol, and 100 IU/ml of recombinant Human Interleukin-2 (TL-2). On the day of experiment, cells were harvested and washed with aMEM medium without IL-2. After counting, cells were seeded at 100 000 cells/well in a 384 well titer plate and incubated at 37° C./5% CO2. Sixteen 2-fold serial dilutions of Fc fused human IL-18 binding protein isoform a (IL-18BPa; R&D systems, Cat #119-BP) were prepared in aMEM medium-1 ng/ml IL-12 containing 2 nM of each IL-18 variants and were added to the NK-92 cells. Final IL-18 analytes concentration was 1 nM and final IL-18BPa concentrations ranged from to 566 nM down to 17 pM.
After 16-20 h incubation at 37° C./5% CO2, 5 μl of supernatant were carefully transferred to a 384 microwells OPTIplate (Perkin Elmer; Cat #6007270) and Interferon-gamma (IFNγ) levels measured using the Human IFNγ AlphaLISA Assay Kit (Perkin Elmer, Cat #AL217C). […] AlphaLisa signal was then measured on an Enspire plate reader (Perkin Elmer) using 680 and 615 nm as excitation and emission wavelengths respectively. Half maximal inhibitory concentration (IC50) was calculated based on a variable slope, four parameter analysis using GraphPad PRISM software.

Assay [2] deals with PD-1 positive (transduced) KG-1 cells. In words: IFN gamma secretion assay in PD-1 transduced KG-1 cells (Example 11). The format is cell-based, human. The note with it: ratio of EC50 in PD-1 positive and parental KG-1 cells. The protocol: The KG-1 cell line was used to generate a PD-1 expressing cell line and furthermore, to measure IFNγ release upon incubation with TL-18 variants and corresponding TL-18 immunocytokines.
PD-1 expressing cell line generation: Briefly, KG-1 cells were transduced using lentiviral particles carrying the human PD-1 gene (PDCD1 NM_005018; Origene, CAT #: RC210364L3V) at a MOI (Multiplicity of Infection) of 30. Spinfection was performed at 1260 g during 90 min at 37° C. in the presence of 5 μg/ml of Polybrene and 10 mM of HEPES in complete culture media (RPMI, 10% FBS, 1% L-Glutamine). […]
IFNγ release was assessed in PD-1 positive (transduced) KG-1 cells, as well as in the parental PD-1 negative cells. […] The lowest concentration assessed was 0.05 fM. After incubation, IFNγ release was measured using the LEGENDplex custom human mix and match KIT (Biolegend LEGENDplex™ Human IFN-γ Capture Bead B5, 13×#740942, LEGENDplex™ P 1 Essential Immune Response Panel Detection Abs, #740931, LEGENDplex™ Buffer Set A #740368). […] Fluorescence measurements were done with a Quanteon Flow Cytometer from Acea Biosciences. For analysis, MFI values (median fluorescence intensity) were exported and plotted against concentrations used. The EC50 values (half maximal effective concentration) were calculated based on a variable slope and four parameter analysis using GraphPad PRISM software version 9.

B1: SEQ ID NO: 30: IL-18 polypeptide: E6K, V11I, C38A, K53A, T63A, C76A, C127A (protein)
chain: YFGKLKSKLSIIRNLNDQVLFIDQGNRPLFEDMTDSDARDNAPRTIFIISMYADSQPRGMAVAISVKCEKISTLSAENKIISFKEMNPPDNIKDTKSDIIFFQRSVPGHDNKMQFESSSYEGYFLAAEKERDLFKLILKKEDELGDRSIMFTVQNED
In general, IC50 refers to the concentration at which inhibition is half-maximal. For B1, the IC50 in assay [1] worked out at 488 nM. Further, the “PD-1^pos/PD-1^neg EC50 ratio” value in assay [2] stood at 1.336.
